From PMC5383250, “Functional studies of E. faecalis RNase J2 and its role in virulence and fitness” (PLoS ONE, 2017)

Target: T1, E. faecalis RNase J2 (Enterococcus faecalis (strain OG1RF), UniProt Q836D0 1-562)
T1 construct: RNase J2 of Enterococcus faecalis, product of rnjB (ef1185); 1689 bp fragment PCR amplified from the OG1RF genome with primers 1185NdeF (begins at the ATG) and 1185XhoR (ends at the stop codon), in vector pQE30; recombinant protein M.W. 64.2 kDa; Vector pQE30; also called wild-type RNase J2; rnjB gene product; source: E. coli BL21, purified (Ni-NTA agarose)
T1 sequence (looked up): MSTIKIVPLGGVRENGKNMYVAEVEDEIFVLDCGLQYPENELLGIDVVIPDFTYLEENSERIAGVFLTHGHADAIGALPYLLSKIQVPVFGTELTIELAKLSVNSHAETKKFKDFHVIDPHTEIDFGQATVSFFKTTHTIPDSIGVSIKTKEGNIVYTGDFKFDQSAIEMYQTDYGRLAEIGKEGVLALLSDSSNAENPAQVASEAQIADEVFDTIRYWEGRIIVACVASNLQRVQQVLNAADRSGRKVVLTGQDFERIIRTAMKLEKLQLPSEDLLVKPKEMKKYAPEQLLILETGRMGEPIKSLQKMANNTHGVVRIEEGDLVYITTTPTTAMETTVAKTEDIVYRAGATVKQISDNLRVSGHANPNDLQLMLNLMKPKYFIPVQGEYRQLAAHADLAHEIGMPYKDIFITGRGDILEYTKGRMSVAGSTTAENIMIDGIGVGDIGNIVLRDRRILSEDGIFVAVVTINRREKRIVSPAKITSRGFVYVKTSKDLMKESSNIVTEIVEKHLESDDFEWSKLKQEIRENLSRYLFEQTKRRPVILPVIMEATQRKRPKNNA
Assay: SPR; Biacore T100; E. faecalis RNase J1 immobilized on a CM5 sensor surface; J2 proteins 400 to 50 nM in duplicate; fitted to the 1:1 binding model
Settings: both partners purified

B1: E. faecalis RNase J1 (enzyme)
chain: not shown
notes: recombinant protein M.W. 62.6 kDa; also called rnjA gene product; ef2924; source: E. coli BL21, purified (Ni-NTA agarose)
Kd: 74 nM
